# In patent US20200022914A1, “LIPOSOMAL COMPOSITIONS AND SOLID ORAL DOSAGE FORMS COMPRISING THE SAME” (UNIVERSITÄT HEIDELBERG, priority 2017, published 2020):
# Assay: Single dose PK study of oral Adalimumab in comparison with intravenous administration
# Type: in vivo
# Settings: beagle dogs; oral 15 mg in lyophilized liposomes with 1 mol-% cycR9 conjugate in enteric coated capsule vs 3 mg intravenous; comparison of AUC values, ELISA
# Protocol: Single dose PK study of oral Adalimumab (Humira™) in comparison with Adalimumab after intravenous administration. As animals, 2 beagle dogs were used. The oral dose of Adalimumab was 15 mg encapsulated in liposomes containing 1-mol% of the cycR9 conjugate described before. The liposomes were lyophilized and afterwards filled in an enteric coated capsule. The intravenous dose was 3 mg. The blood sampling time points for the oral administration were: 0 (pre-dose), 0:15, 0:30, 1:00, 2:00, 4:00, 8:00, 24:00, 48:00, 96:00 h p.a. The blood sampling time points for the intravenous administration were: 0 (pre-dose), 0:15, 0:30, 1:00, 2:00, 4:00, 8:00, 24:00, 48:00, 96:00 h p.a. All blood samples were analyzed by ELISA measurements (IDKmonitor® Adalimumab drug level ELISA, Immundiagnostik AG, Bensheim).
substance,measurement,value
Adalimumab,bioavailability after oral administration,3.55%
